Results taken from patent US20210403586A1, “MUTANT OF RANKL AND PHARMACEUTICAL COMPOSITION COMPRISING SAME FOR PREVENTING OR TREATING OSTEOPOROSIS” (INDUSTRY-ACADEMIC COOPERATION FOUNDATION CHOSUN UNIVERSITY, priority 2018, published 2021).
“Also recorded” adds a separate entry of the source.

B1: wtRANKL: wild-type RANKL (mouse; purified, or from Amgen in Example 2) (protein, UniProt O35235 139-316, looked up)
Tumor necrosis factor ligand …: FSGAPAMMEGSWLDVAQRGKPEAQPFAHLTINAASIPSGSHKVTLSSWYHDRGWAKISNMTLSNGKLRVNQDGFYYLYANICFRHHETSGSVPTDYLQLMVYVVKTSIKIPSSHNLMKGGSTKNWSGNSEFHFYSINVGGFFKLRAGEEISIQVSNPSLLDPDQDATYFGAFKVQDID
B2: sRANKL: soluble RANKL; R&D Systems (protein)
chain: B1 Tumor necrosis factor ligand …

Columns and labels:
BALB/c mice = experiment: Bone destruction by injected mtRANKL, micro-CT; assay type: in vivo, mouse; details: subcutaneous 1.0 mg/kg three times a week
Protocol: (§1) The right femur of each mouse subjected to each experiment was incised and CT imaging was performed using a Quantum GX pCT imaging system (PerkinElmer, Hopkinton, Mass., USA) located at the Korea Basic Science Institute in Gwangju. As for the X-ray source, the field of view was set to 45 mm, 90 kV and […] (voxel size, 90 μm; scanning time, 14 minutes). CT imaging was performed using a Quantum GX 3D Viewer software. After scanning, image segmentation was performed in Analyze (AnalyzeDirect, Overland Park, Kans., USA). Briefly, the legs were segmented using semi-automatic and manual tools (e.g., object extractor, area expansion, and object separator) using volume editing tools. Then, a 3D rendering of the leg was created, and bone mineral density (BMD), bone volume (BV), bone volume percentage (%), and trabecular thickness were calculated using the ROI tools.
To investigate the bone-destructive effect of mtRANKL, 4-week-old male BALB/c mice (Orient Bio) were placed in a cage capable of accommodating up to 4 animals in a light-controlled environment ([…]) and provided with autoclaved water and both whole and powdered rodent diet (Purina, St. Louis, Mo., USA). Starting from 6 weeks of age, 9 mice were randomly divided into three groups, and each group was subcutaneously injected with wild-type RANKL (Amgen, Thousand Oaks, Calif., USA), mtRANKL purified in Reference Example 2, and saline three times a week (1.0 mg/kg). The trabecular bone in femoral neck was examined by Micro-CT analysis described in Reference Example 6.

[1] = test system: bone marrow-derived monocytes (BMMs); experiment: TRAP analysis of osteoclastogenesis induced by RANKL variants in BMMs; assay type: cell-based, mouse; details: RANKL-treated primary BMM
Protocol: The RANKL-RANK binding sites are K180, D189, R190, H223, H224, which are conserved between humans and mice. We selected 4 mutant RANKLs to be purified. Their size corresponded to the wild type RANKL (39 kDa) (FIG. 2B). Tartrate-resistant acid […] (TRAP) activity was absent for all RANKLs even at 150 ng/mL (FIG. 2C, D).
4-week old male BALB/c mice were purchased from Orient Bio (Gwangju, Korea) and kept in an animal facility approved by the Chosun University Animal Management Committee (IACUC2017-A0002). After obtaining bone marrow cells from mice, bone marrow mononuclear cells were seeded into 96-well plates (1 Y 10^4 cells/well), and in the absence or presence of various concentrations of compounds, incubated with M-CSF (100 ng/mL) overnight before stimulation with RANKL (50 ng/well). The medium was replaced every other days. 6 days later, the cells were fixed with 4% paraformaldehyde, permeated in 0.1% Triton X-100, and washed with PBS. Then, TRAP activity (Sigma-Aldrich, St. Louis, Mo., USA) staining was performed. TRAP-positive multinuclear cells containing 5 or more nuclei were counted as osteoclasts.
To evaluate the effect of mtRANKL on osteoclastogenesis, TRAP analysis was performed on RANKL-treated primary bone marrow-derived macrophages (BMM) by the method described in Reference Example 2, and the results are shown in FIGS. 4B and 4C.

BMMs [2] = experiment: F-actin ring formation assay; assay type: cell-based, mouse; details: mRANKL-MT3 150 ng/mL
Protocol: (§2) We used bone-resorption and F-actin ring formation assays to investigate osteoclast activity. To observe bone resorption in vitro, BMMs were cultured in Corning Osteo Assay Surface 96-well Multiple Well Plates (Sigma) with 30 ng/mL M-CSF and 75 ng/mL sRANKL (soluble RANKL; R&D Systems) or isolated RANKL for 6 days. Then, the plates were washed with pure water. To monitor actin ring formation, BMMs were grown on glass slides. After culture, the cells were fixed with 4% formalin, permeabilized with 0.5% Triton X100 in PBS for 5 min at room temperature, and incubated with 0.5 mg/mL TRITC-labelled phalloidin for 30 min. The cells were then rinsed with PBS. F-actin rings were visualized using a fluorescence ECLIPSE Ts2R microscope (Nikon, Tokyo, Japan).

RANKL = experiment: ELISA of serum RANKL levels; assay type: in vivo, mouse; details: wtRANKL 2.0 mg/kg s.c. to non-immunized mice, or to mice immunized with mtRANKL
Protocol: A commercially available enzyme immunoassay kit (R & D Systems, Minn., USA) was used to measure RANKL levels in the serum of mice according to the manufacturer's protocol. Absorbance (450 nm) was measured in a colorimetric microplate reader (BioTek, Winooski, USA). The reading of the absorbance was then subtracted from the reading at 570 nm.
(§3) 17-week-old […] BALB/c mice were equally divided into 3 groups. The group was divided into a negative control group in which PBS was intraperitoneally injected, a group in which only wtRANKL was injected, and a group in which wtRANKL was injected after immunization with mtRANKL for 52 days. mtRANKL was injected after mixing with an aluminum hydroxide adjuvant. The immunization process started with 1st immunization of mtRANKL at 52 days, 2nd immunization at 39 days, 3rd immunization at 14 days each before injection of wtRANKL, and a total of 3 immunizations was performed. The amount of mtRANKL was 0.2 mg per mouse.
(§4) After 52 days, PBS was injected into the negative control group and wtRANKL was injected into the other two groups. Next day, wtRANKL was injected once more. wtRANK was subcutaneously injected (2.0 mg/kg). Serum was collected to determine the titer of anti-RANKL antibody. Then, after extracting tibias, the adhesive soft tissues of tibias were removed.

BMMs [3] = experiment: Bone-resorption assay (Osteo Assay Surface plates); assay type: cell-based, mouse; details: 6 days, mRANKL-MT3 150 ng/mL
Protocol: as §2

wtRANKL-induced mouse = experiment: mtRANKL immunization in wtRANKL-induced osteoporosis mice, micro-CT; assay type: in vivo
Protocol: as §1, §3, §4
To examine whether RANKL has a bone destruction effect when RANKL was injected after immunization with mtRANKL, micro-CT analysis was performed by the method of Reference Example 6.

RANK and LGR4 signaling [4] = experiment: Western blots of RANK and LGR4 signaling pathway proteins, RANKL variants; assay type: cell-based, mouse; details: BMMs, Western blot
Protocol: (§5) Proteins were separated by SDS-PAGE and electropermeated into a nitrocellulose membrane (Bio-Rad). After blocking the membrane with 5% (weight/volume) skim milk in TBST [10 mM Tris (pH 7.5), 150 mM NaCl, 0.1% (vol/vol) Tween 20], each mouse serum for primary antibody in the blocking solution was examined. The membrane was washed three times with Tris buffered saline. […] peroxidase (HRP)-conjugated secondary antibody was diluted 1:5000 with TBST in 1% (wt/vol) skim milk powder. ECL_system (Amersham Pharmacia Biotech) was used as the membrane.
Primary antibodies: AKT (Cell Signaling Technology, 1:1000), phospho-AKT (Cell Signaling Technology, #9271S, 1:1000), p38 (Cell Signaling Technology, 9212S, 1:1000), phospho-p38 (Cell Signaling Technology, #9211S, 1:1000), ERK (Cell Signaling Technology, 9102S, 1:1000), phospho-ERK (Cell Signaling Technology, #9101S, 1:1000), JNK (Cell Signaling Technology, 9252S, 1:1000), phosphoJNK (Cell Signaling Technology, #9251S, 1:1000), GSK-3β (Cell Signaling Technology, 9315S, 1:1000), phosphoGSK-3β (Cell Signaling Technology, #9336S, 1:1000), Src (Cell Signaling Technology, 2108S, 1:1000), phosphoSrc (Cell Signaling Technology, #2105S, 1:1000), NF-KB p65 (Cell Signaling Technology, #3034, 1:1000), phosphop65 (Cell Signaling Technology, #3031, 1:1000), RANK (Cell Signaling Technology, 4845S, 1:1000), Gaq (Cell Signaling Technology, 14373S, 1:1000), LGR4 (MyBioSource, MBS468030, 1:500), 20112360C-1, and GAPDH (Santa-Cruz Biotechnology, 1:2500).
To investigate the interaction of mRANKL variants and RANK, the co-immunoprecipitation (Co-IP) assays were carried out using mRANKL-WT/mRANKL-MT3 and RANK/LGR4 (FIG. 12A). In addition, wild-type RANKL induced MAPK, AKT, NF-κB p65, and GSK-3 phosphorylation, which is involved in LGR4 signaling (FIG. 12B).

sRANKL-induced mice = experiment: Anti-RANKL IgGs in sRANKL-induced mice; assay type: in vivo, mouse
RANK and LGR4 signaling [5] = experiment: Anti-RANKL on RANK and LGR4 signaling in BMMs; assay type: cell-based, mouse; details: Western blot, sRANKL
Protocol: as §5, with “membrane. […]” for “membrane.”
We verified that anti-RANKL suppressed RANK and LGR4 signaling in a time-dependent manner (FIG. 13A). […] In addition, NFATc1 nuclear translocation was not detected by Western blot analysis or confocal microscopy in anti-RANKL-treated BMMs in the presence of sRANKL compared with control IgG (FIG. 13B, 13C).

isolated spleen cells = experiment: Th1/Th2 cytokine secretion of isolated spleen cells; assay type: cell-based, mouse; details: culture supernatant of Sham and IM splenocytes stimulated with sRANKL or mRANKL-MT3
Description: To determine whether mRANKL-MT3 immunization influences Th1 and Th2 cytokine production, we evaluated the effects of mRANKL-MT3 on IL-4 and IL-10 secretion, which are markers for Th2 responses, and IFN-γ, a marker for Th1 responses, in the culture supernatant of isolated spleen cells stimulated with sRANKL or mRANKL-MT3 (FIG. 8C).

[6] = wtRANKL-injected mice vs mtRANKL-immunized mice with wtRANKL injection

Molecule	BMD, bone volume (BV), percentage (%) of bone volume, and trabecular thickness (BALB/c mice)	trabecular bone by Micro-CT (osteoporosis) (BALB/c mice)	number of TRAP-positive multinuclear osteoclasts / osteoclast differentiation [1]	F-actin ring formation (BMMs [2])	level of RANKL in the blood (ELISA) (RANKL)	resorption pits (BMMs [3])	bone volume and percentage of bone volume (wtRANKL-induced mouse; compared with PBS-treated mice)	BMD of tibias (wtRANKL-induced mouse; [6])	trabecular bone architecture of proximal tibias (micro-CT) (wtRANKL-induced mouse; [6])	GSK-3 phosphorylation (RANK and LGR4 signaling [4])	MAPK, AKT, and NF-κB p65 phosphorylation (RANK and LGR4 signaling [4])	trabecular bone architecture of VOI from the distal femur (micro-CT) (sRANKL-induced mice; sRANKL-induced mice)	BMD, BV/TV, and Tb.N. values (sRANKL-induced mice; sRANKL-induced mice, quantitative micro-CT)	bone histomorphometric analysis and TRAP staining of femur (sRANKL-induced mice; sRANKL-treated mice)	circulating RANKL and CTX-1 levels (sRANKL-induced mice; sRANKL-treated mice sera)	MAPK, AKT, src, and GSK-3β phosphorylation (RANK and LGR4 signaling [5])	IFN-γ levels (isolated spleen cells)	IL-4 and IL-10 secretion (isolated spleen cells)
B1	remarkably reduced	mild osteoporosis was observed	significantly higher; also recorded: increased the number of TRAP-positive multinucleated cells	a ring of intracellular F-actin filaments in the sealing zone	increased	numerous resorption pits	decreased	738.0 ± 19.1 mg/mL	fenestrated trabecular bone and thinner rods forming the trabecular bone	induced	induced	–	–	–	–	–	–	–
B2	–	–	–	–	–	–	–	–	–	–	–	mild osteoporosis	low	an increased number of TRAPpositive osteoclasts	higher	induced	no significant differences	significantly increased
